From patent US20230270857A1

Target: CD3 on ex vivo expanded human T cells (Homo sapiens) (UniProt P07766)
Assay: flow cytometry referenced to quantum beads

Substance | molar amount of BsAb bound per T cell (zeptomoles per T cell)
GD2-BsAb (hu3F8-BsAb, anti-GD2 hu3F8 x anti-CD3 huOKT3, IgG-[L]-scFv format) (bispecific antibody) | 1 to 35
HER2-BsAb (trastuzumab x huOKT3, IgG-[L]-scFv format) (bispecific antibody) | 1 to 35
